This series deals with His-ASF/SF2 (UniProt Q07955). Kind of series: intrinsic tryptophan fluorescence quenching. As to conditions: 100 mM KCl, 20 mM Tris-HCl pH 7.5, room temperature, 100 nM His-ASF/SF2, excitation 280 nm, emission 340 nm.
Sequence of His-ASF/SF2 (Q07955 whole entry): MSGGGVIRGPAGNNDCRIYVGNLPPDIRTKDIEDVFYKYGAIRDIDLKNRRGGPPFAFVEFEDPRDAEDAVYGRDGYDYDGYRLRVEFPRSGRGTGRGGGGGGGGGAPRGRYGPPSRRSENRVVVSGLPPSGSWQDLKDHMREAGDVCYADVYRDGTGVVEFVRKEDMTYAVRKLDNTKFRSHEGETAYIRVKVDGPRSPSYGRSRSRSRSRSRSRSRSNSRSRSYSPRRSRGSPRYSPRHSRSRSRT

With Genomic HDV RNA, the Kd worked out at 40 nM.

The Kd is the constant that tells how readily two partners part at equilibrium. Low readings indicate a tighter complex, high ones a looser complex.

The values above are taken from PMC3548785.
